Data as given in US20240301064A1 (published 2024).

T1: human MAdCAM (human, UniProt Q13477 19-317, limits assumed)
T1 construct: also called huMAdCAM
T1 sequence (looked up): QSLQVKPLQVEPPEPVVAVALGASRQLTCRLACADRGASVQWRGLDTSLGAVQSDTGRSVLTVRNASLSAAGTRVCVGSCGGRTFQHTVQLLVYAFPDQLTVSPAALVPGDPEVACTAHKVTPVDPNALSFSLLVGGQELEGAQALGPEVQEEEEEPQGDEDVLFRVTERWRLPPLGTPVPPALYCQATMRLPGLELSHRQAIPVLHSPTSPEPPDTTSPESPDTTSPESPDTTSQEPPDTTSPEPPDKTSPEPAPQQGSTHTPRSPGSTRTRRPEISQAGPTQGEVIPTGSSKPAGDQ


Columns and labels:
[1] = target: PD-1 on PD-1 reporter Jurkat cells; experiment: cell-based or functional assay
[2] = target: T1, human MAdCAM; experiment: BLI Octet
Description: (§1) Anti-human Fc biosensors were equilibrated in assay buffer (1% BSA in 1×PBS with 0.05% Tween-20) for 10 minutes before the experiment was set-up. Test articles were diluted to 5 μg/mL in assay buffer and 200 μL pipetted to 96 well plate. Human MAdCAM was titrated down, two-fold dilutions (starting at 600 nM as the highest concentration, 7-point dilution). Experiment was run using data acquisition software version 10.0 for OCTET96 RED. Test articles were captured using anti-human Fc biosensors for 180 s. Biosensors loaded with test articles were then equilibrated in assay buffer for 120 s. Association was performed in wells with huMAdCAM for 180 seconds. Dissociation was performed in wells with assay buffer for 180 s. Kinetic parameters (kon and kdis) and dissociation constant (KD) were calculated from a 1:1 global fit model using the data analysis software of the Octet96 RED software version 10.

[3] = target: T1, human MAdCAM; experiment: BLI Octet, against PRNT1
Description: as §1

| Binder | fold reduction of MAdCAM affinity [3] [fold] | further results |
| --- | --- | --- |
| PMAB61 (bispecific antibody, human IgG1, kappa) heavy: EVQLVQSGAEVKKPGASVKVSCKASGYSFTSYYMHWVRQAPGQGLEWMGIINPSGGSTSYAQKFQGRVTMTRDTSTSTVYMELSSLRSEDTAVYYCASGWVYWGQGTLVTVSSASTKGPSVFPLAPSSKSTSGGTAALGCLVKDYFPEPVTVSWNSGALTSGVHTFPAVLQSSGLYSLSSVVTVPSSSLGTQTYICNVNHKPSNTKVDKKVEPKSCDKTHTCPPCPAPEAAGAPSVFLFPPKPKDTLMISRTPEVTCVVVDVSHEDPEVKFNWYVDGVEVHNAKTKPREEQYNSTYRVVSVLTVLHQDWLNGKEYKCKVSNKALPAPIEKTISKAKGQPREPQVYTLPPSREEMTKNQVSLTCLVKGFYPSDIAVEWESNGQPENNYKTTPPVLDSDGSFFLYSKLTVDKSRWQQGNVFSCSVMHEALHNHYTQKSLSLSPGGGGGSGGGGSGGGGSEVQLLESGGGLVQPGGSLRLSCAASGFTFSSYWMHWVRQAPGKGLEWVSYISGSGGYTNYADSVKGRFTISRDNSKNTLYLQMNSLRAEDTAVYYCARDRPYYYDMDVWGKGTTVTVSSGGGGSGGGGSGGGGSGGGGSDIQMTQSPSSLSASVGDRVTITCRASQSISSSLAWYQQKPGKAPKLLIYAASSLQSGVPSRFSGSGSGTDFTLTISSLQPEDFATYYCQQYKSYPVTFGQGTKVEIK light: not shown | – | PD-1 reporter Jurkat cells on test-article-loaded MAdCAM-expressing CHO cells; EC50 [1]: 3.02 nM; SHP-2 recruitment, Ig-tethered test article, PD-1 reporter Jurkat cells; EC50 (second experiment) [1]: 4.45 nM |
| MIAB169 (antibody, human IgG1, kappa, also called MIAB169-CHO; MIAB169-HEK) heavy: EVQLLESGGGLVQPGGSLRLSCAASGFTFSDFWMHWVRQAPGKGLEWISYISGDSGYTNYADSVKGRFTISRDNSKNTLYLQMNSLRAEDTAVYYCARDRPYYYIMDVWGKGTTVTVSSASTKGPSVFPLAPSSKSTSGGTAALGCLVKDYFPEPVTVSWNSGALTSGVHTFPAVLQSSGLYSLSSVVTVPSSSLGTQTYICNVNHKPSNTKVDKKVEPKSCDKTHTCPPCPAPEAAGAPSVFLFPPKPKDTLMISRTPEVTCVVVDVSHEDPEVKFNWYVDGVEVHNAKTKPREEQYNSTYRVVSVLTVLHQDWLNGKEYKCKVSNKALPAPIEKTISKAKGQPREPQVYTLPPSREEMTKNQVSLTCLVKGFYPSDIAVEWESNGQPENNYKTTPPVLDSDGSFFLYSKLTVDKSRWQQGNVFSCSVMHEALHNHYTQKSLSLSPGGGGGSAPTSSSTKKTQLQLEHLLLDLQMILNGINNYKNPKLTRMLTFKFYMPKKATELKHLQCLEEELKPLEEALNLAPSKNFHLRPRDLISDINVIVLELKGSETTFMCEYADETATIVEFINRWITFSQSIISTLT light: DIQMTQSPSSLSASVGDRVTITCRASQSVSRSLAWYQQKPGKAPKLLIYAASSLQSGVPSRFSGSGSGTDFTLTISSLQPEDFATYYCQQYKSYPVTFGQGTKVEIKRTVAAPSVFIFPPSDEQLKSGTASVVCLLNNFYPREAKVQWKVDNALQSGNSQESVTEQDSKDSTYSLSSTLTLSKADYEKHKVYACEVTHQGLSSPVTKSFNRGEC | – | fold lower affinity than parent PRNT1 [2]: 10 fold |
| MIAB182 (antibody, human IgG1, kappa, also called MIAB182-001) heavy: EVQLLESGGGLVQPGGSLRLSCAASGFTFSSYWMHWVRQAPGKGLEWVSAISGSGGSTYYADSVKGRFTISRDNSKNTLYLQMNSLRAEDTAVYYCARDRPYYYYMDVWGKGTTVTVSSASTKGPSVFPLAPSSKSTSGGTAALGCLVKDYFPEPVTVSWNSGALTSGVHTFPAVLQSSGLYSLSSVVTVPSSSLGTQTYICNVNHKPSNTKVDKKVEPKSCDKTHTCPPCPAPEAAGAPSVFLFPPKPKDTLMISRTPEVTCVVVDVSHEDPEVKFNWYVDGVEVHNAKTKPREEQYNSTYRVVSVLTVLHQDWLNGKEYKCKVSNKALPAPIEKTISKAKGQPREPQVYTLPPSREEMTKNQVSLTCLVKGFYPSDIAVEWESNGQPENNYKTTPPVLDSDGSFFLYSKLTVDKSRWQQGNVFSCSVMHEALHNHYTQKSLSLSPGGGGGSAPTSSSTKKTQLQLEHLLLDLQMILNGINNYKNPKLTRMLTFKFYMPKKATELKHLQCLEEELKPLEEALNLAPSKNFHLRPRDLISDINVIVLELKGSETTFMCEYADETATIVEFINRWITFSQSIISTLT light: not shown | 10 | – |
| MIAB183 (antibody, human IgG1, kappa, also called MIAB183-001) heavy: EVQLLESGGGLVQPGGSLRLSCAASGFTFSSYWMHWVRQAPGKGLEWVSAISGSGGSTYYADSVKGRFTISRDNSKNTLYLQMNSLRAEDTAVYYCARDRPYYYYMDVWGKGTTVTVSSASTKGPSVFPLAPSSKSTSGGTAALGCLVKDYFPEPVTVSWNSGALTSGVHTFPAVLQSSGLYSLSSVVTVPSSSLGTQTYICNVNHKPSNTKVDKKVEPKSCDKTHTCPPCPAPEAAGAPSVFLFPPKPKDTLMISRTPEVTCVVVDVSHEDPEVKFNWYVDGVEVHNAKTKPREEQYNSTYRVVSVLTVLHQDWLNGKEYKCKVSNKALPAPIEKTISKAKGQPREPQVYTLPPSREEMTKNQVSLTCLVKGFYPSDIAVEWESNGQPENNYKTTPPVLDSDGSFFLYSKLTVDKSRWQQGNVFSCSVMHEALHNHYTQKSLSLSPGGGGGSAPTSSSTKKTQLQLEHLLLDLQMILNGINNYKNPKLTRMLTFKFYMPKKATELKHLQCLEEELKPLEEALNLAPSKNFHLRPRDLISDINVIVLELKGSETTFMCEYADETATIVEFINRWITFSQSIISTLT light: DIQMTQSPSSLSASVGDRVTITCRASQSVSSSLAWYQQKPGKAPKLLIYAASSLQSGVPSRFSGSGSGTDFTLTISSLQPEDFATYYCQQYKSYPVTFGQGTKVEIKRTVAAPSVFIFPPSDEQLKSGTASVVCLLNNFYPREAKVQWKVDNALQSGNSQESVTEQDSKDSTYSLSSTLTLSKADYEKHKVYACEVTHQGLSSPVTKSFNRGEC | 20 | – |
| MIAB184 (antibody, human IgG1, kappa, also called MIAB184-001) heavy: EVQLLESGGGLVQPGGSLRLSCAASGFTFSSYWMHWVRQAPGKGLEWVSAISGSGGSTYYADSVKGRFTISRDNSKNTLYLQMNSLRAEDTAVYYCARDRPYYYYMDVWGKGTTVTVSSASTKGPSVFPLAPSSKSTSGGTAALGCLVKDYFPEPVTVSWNSGALTSGVHTFPAVLQSSGLYSLSSVVTVPSSSLGTQTYICNVNHKPSNTKVDKKVEPKSCDKTHTCPPCPAPEAAGAPSVFLFPPKPKDTLMISRTPEVTCVVVDVSHEDPEVKFNWYVDGVEVHNAKTKPREEQYNSTYRVVSVLTVLHQDWLNGKEYKCKVSNKALPAPIEKTISKAKGQPREPQVYTLPPSREEMTKNQVSLTCLVKGFYPSDIAVEWESNGQPENNYKTTPPVLDSDGSFFLYSKLTVDKSRWQQGNVFSCSVMHEALHNHYTQKSLSLSPGGGGGSAPTSSSTKKTQLQLEHLLLDLQMILNGINNYKNPKLTRMLTFKFYMPKKATELKHLQCLEEELKPLEEALNLAPSKNFHLRPRDLISDINVIVLELKGSETTFMCEYADETATIVEFINRWITFSQSIISTLT light: not shown | 40 | – |
